From the RNAGym collection of RNA variant scans (doi:10.1093/molbev/msab373) come the findings set out here.

B1: Azoarcus group I ribozyme (parent)
chain: GUGCCUUGCGCCGGGAAACCACGCAAGGGAUGGUGUCAAAUUCGGCGAAACCUAAGCGCCCGCCCGGGCGUAUGGCAACGCCGAGCCAAGCUUCGGCGCCUGCGCCGAUGAAGGUGUAGAGACUAGACGGCACCCACCUAAGGCAAACGCUAUGGUGAAGGCAUAGUCCAGGGAGUGGCGAAAGUCACACAAACCGG

This data set covers variants of B1. The experiment in a line: reverse-splicing fitness (ratio to wild type); higher = more active; in vitro selection; Mg2+ level not given. The essentials: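 An in vitro group I ribozyme library with randomized positions was T7-transcribed and gel-purified. In triplicate, 10 pmol RNA in EPPS pH 7.5 was reacted with 50 pmoles of a 30-nt RNA substrate for 1 h at 37 °C across several added MgCl2 levels (1–48 mM), then stopped with EDTA. Products were reverse transcribed from a substrate-complementary primer, PCR-amplified and sequenced (HiSeq 4000). Fitness is a variant's read proportion after selection over that before, normalised to wild type.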
C82A A111G A145G C169G U176A: the reverse-splicing fitness was 0.0194.

Turning to C82A A111G A145G C169G U176G, the reverse-splicing fitness came to 0.00515.

On to C82A A111G A120U A145U C150A C169A U176A, for which the reverse-splicing fitness is 0.00224.

On to C82A A111G A120U A145U C150A C169A U176G, for which the reverse-splicing fitness is 0.00187.

Take C82A A111G A120U A145U C150A C169A U176C: the reverse-splicing fitness turned out to be 0.00213.

As to C82A A111G A120U A145G C150G C169A U176A, the reverse-splicing fitness turned out to be 0.0108.

On to C82A A111G A120U A145G C150G C169A U176C, for which the reverse-splicing fitness amounted to 0.00953.

Turning to C82A A111G A120U A145G C150G C169A U176G, the reverse-splicing fitness was found to be 0.00369.

With C82A A111G A145G C169U, the reverse-splicing fitness came out at 0.0126.

With C82A A111G A145G C169G, the reverse-splicing fitness is 0.00988.

Consider C82A A111G A145G C169A, for which the reverse-splicing fitness worked out at 0.0102.

Consider C82A A111G A120U A145U C150A U176G, for which the reverse-splicing fitness was determined as 0.00197.

Consider C82A A111G A120U A145U C150A U176A, for which the reverse-splicing fitness is 0.00478.

Take C82A A111G A120U A145U C150A U176C: the reverse-splicing fitness was 0.00602.

For C82A A111G A120U A145G C150A C169G U176A, the reverse-splicing fitness worked out at 0.015.

Consider C82A A111G A120U A145G C150A C169G U176G, for which the reverse-splicing fitness is 0.00282.

Regarding C82A A111G A120U A145G C150A C169G U176C, the reverse-splicing fitness was 0.00705.

In the case of C82A A111G A120U A145U C150A C169G U176A, the reverse-splicing fitness turned out to be 0.00301.

As for C82A A111G A120U A145U C150A C169G U176C, the reverse-splicing fitness stood at 0.00264.

C82A A111G A120U A145U C150A C169G U176G: the reverse-splicing fitness was 0.0019.

As to C82A A111G A120U A145C U176C, the reverse-splicing fitness was found to be 0.0111.

On to C82A A111G A120U A145C U176G, for which the reverse-splicing fitness stood at 0.00284.

As to C82A A111G A120U A145C U176A, the reverse-splicing fitness came out at 0.00841.

Take C82A A111G A145C C169A U176C: the reverse-splicing fitness was 0.00756.

As to C82A A111G A145C C169A U176A, the reverse-splicing fitness stood at 0.0123.

Consider C82A A111G A145C C169A U176G, for which the reverse-splicing fitness was determined as 0.00582.

As for C82A A111G A120U A145G C150U C169U U176A, the reverse-splicing fitness amounted to 0.00523.

With C82A A111G A120U A145G C150U C169U U176C, the reverse-splicing fitness was found to be 0.00442.

Turning to C82A A111G A120U A145G C150U C169U U176G, the reverse-splicing fitness was determined as 0.00242.

On to C82A A111G A145G C150G C169A, for which the reverse-splicing fitness came to 0.0093.

Take C82A A111G A145G C150G C169U: the reverse-splicing fitness was found to be 0.00932.

Regarding C82A A111G A145G C150G C169G, the reverse-splicing fitness turned out to be 0.00786.

For the variant C82A A111G A120U A145U C150A C169U U176C, the reverse-splicing fitness worked out at 0.00285.

Turning to C82A A111G A120U A145U C150A C169U U176A, the reverse-splicing fitness is 0.00277.

With C82A A111G A120U A145U C150A C169U U176G, the reverse-splicing fitness stood at 0.0018.

On to C82A A111G A120U A145U C150U U176G, for which the reverse-splicing fitness worked out at 0.00398.

For C82A A111G A120U A145U C150U U176A, the reverse-splicing fitness is 0.00864.

C82A A111G A120U A145U C150U U176C: the reverse-splicing fitness turned out to be 0.0108.

Consider C82A A111G A120U C150U U176A, for which the reverse-splicing fitness was determined as 0.00851.

Take C82A A111G A120U C150U U176G: the reverse-splicing fitness stood at 0.00388.

In the case of C82A A111G A120U C150U U176C, the reverse-splicing fitness turned out to be 0.0108.

Take C82A A111G A145C C150A C169U U176G: the reverse-splicing fitness amounted to 0.00626.

With C82A A111G A145C C150A C169U U176C, the reverse-splicing fitness stood at 0.00831.

Consider C82A A111G A145C C150A C169U U176A, for which the reverse-splicing fitness was 0.0133.

C82A A111G A145G C169U U176C: the reverse-splicing fitness was found to be 0.0149.

On to C82A A111G A145G C169U U176A, for which the reverse-splicing fitness is 0.0137.

For the variant C82A A111G A145G C169U U176G, the reverse-splicing fitness worked out at 0.00606.

With C82A A111G A120U A145C C169U, the reverse-splicing fitness stood at 0.00349.

Consider C82A A111G A145U C150A C169A U176A, for which the reverse-splicing fitness was found to be 0.0124.

Regarding C82A A111G A145U C150A C169A U176C, the reverse-splicing fitness is 0.0106.

Regarding C82A A111G A120U C150G C169A, the reverse-splicing fitness worked out at 0.00678.

On to C82A A111G A120U C150G C169G, for which the reverse-splicing fitness worked out at 0.00649.

As to C82A A111G A120U C150G C169U, the reverse-splicing fitness was determined as 0.00601.

For C82A A111G A120U A145G C150G C169U U176C, the reverse-splicing fitness worked out at 0.00796.

Take C82A A111G A120U A145G C150G C169U U176G: the reverse-splicing fitness amounted to 0.00328.

For the variant C82A A111G A120U A145G C150G C169U U176A, the reverse-splicing fitness amounted to 0.00739.

C82A A111G A120U C150G U176C: the reverse-splicing fitness came out at 0.00582.

For the variant C82A A111G A120U C150G U176A, the reverse-splicing fitness turned out to be 0.00446.

C82A A111G A120U C150G U176G: the reverse-splicing fitness came to 0.0031.

Consider C82A A111G A120U C169U, for which the reverse-splicing fitness was found to be 0.00452.

As for C82A A111G A120U C169G, the reverse-splicing fitness came out at 0.00374.

C82A A111G A120U C169A: the reverse-splicing fitness came to 0.00261.

Regarding C82A A111G A145G C150U C169U, the reverse-splicing fitness came out at 0.0135.

As for C82A A111G A145G C150U C169A, the reverse-splicing fitness was determined as 0.0115.

For the variant C82A A111G A145G C150U C169G, the reverse-splicing fitness stood at 0.0102.

Consider C82A A111G A145G U176G, for which the reverse-splicing fitness came out at 0.0444.

Take C82A A111G A145G U176A: the reverse-splicing fitness was found to be 0.184.

Take C82A A111G A145G U176C: the reverse-splicing fitness worked out at 0.245.

C82A A111G A145G C150U C169A U176C: the reverse-splicing fitness stood at 0.0181.

As to C82A A111G A145G C150U C169A U176G, the reverse-splicing fitness was 0.00696.

Take C82A A111G A145G C150U C169A U176A: the reverse-splicing fitness was 0.0167.

For C82A A111G A120U C150A U176C, the reverse-splicing fitness worked out at 0.00802.

With C82A A111G A120U C150A U176G, the reverse-splicing fitness came out at 0.00282.

As for C82A A111G A120U C150A U176A, the reverse-splicing fitness worked out at 0.00595.

Consider C82A A111G A145C C150G U176G, for which the reverse-splicing fitness is 0.00447.

As for C82A A111G A145C C150G U176C, the reverse-splicing fitness amounted to 0.0181.

Turning to C82A A111G A145C C150G U176A, the reverse-splicing fitness amounted to 0.00908.

With C82A A111G A145U C150A, the reverse-splicing fitness amounted to 0.0313.

Turning to C82A A111G A145G C150A C169G U176A, the reverse-splicing fitness stood at 0.0224.

In the case of C82A A111G A145G C150A C169G U176C, the reverse-splicing fitness was 0.0256.

Turning to C82A A111G A145G C150A C169G U176G, the reverse-splicing fitness is 0.00702.

For the variant C82A A111G A120U A145U C150U C169A U176C, the reverse-splicing fitness was 0.00235.

As to C82A A111G A120U A145U C150U C169A U176A, the reverse-splicing fitness was 0.00237.

As for C82A A111G A120U A145U C150U C169A U176G, the reverse-splicing fitness was 0.00171.
